Data on two compounds can be found in patent US20260069728A1, “MULTI-TARGETING COMPOUND AND USE THEREOF” (Chengdu Shetai Medical Technology Co., Ltd., priority 2023, published 2026).

Data set [1] in a line: Isoelectric point (PI) measurement. It is filed as physicochemical. The following applies: unlabeled compound.
The subject of data set [2] is SUM149PT human breast cancer cell line. Put plainly: Cell saturation binding assay, SUM149PT. The settings on record: 68Ga-labeled compound. How it is done: (1) For the cell saturation binding assay, a total of 8 radiolabeled ligand concentrations were set at intervals within the anticipated range. For each concentration, there were 3 groups: the non-inhibition group, the first single inhibition group (FAP single inhibition group), and the second single inhibition group (CXCR4/GRPR/αvβ3 single inhibition group). For each concentration and each group, 3 replicate wells were established.
(2) Cells were plated into a 24-well plate according to the cell plating procedure described above.
(3) The original culture medium was removed from the 24-well plate. Then, 400 μL of 100 mg/mL skimmed milk solution was added to each well for blocking for one hour. After removing the skimmed milk solution, each of wells was washed three times by adding 400 μL of PBS solution. Subsequently, 146 μL of FBS-free medium was added to each well. Next, the non-inhibition group received 4 μL of cold PBS per well, while the first single inhibition group and the second single inhibition group received the following additions per well according to Table 4: 2 μL of non-radiolabeled first single inhibitor solution and 2 μL of cold PBS; 2 μL of non-radiolabeled second single inhibitor solution and 2 μL of cold PBS. The plate was then incubated at room temperature for one hour.
(4) The ligands were radiolabeled with 68Ga using the labeling method described previously. Different volumes of FBS-free medium were added to formulate the radioligand systems at corresponding concentrations. Then, 50 μL of the corresponding concentration of the radioligand system was added to each well.
(5) The supernatant was removed, and the wells were washed three times with 400 μL of PBS. 200 μL of IM NaOH solution was added to each well for cell lysis. […] Each well was washed once with 400 μL of PBS solution, and the washings were sequentially added to the corresponding radioimmunoassay tubes.
(6) Radioactivity in the cells was measured using a γ counter. The equilibrium dissociation constant (KD) was obtained by fitting the curve using nonlinear regression analysis in GraphPad Prism software. KD is the drug concentration that causes half of the maximum effect (50% receptor occupancy).

A short description of data set [3]: Stability of radioligands in PBS buffer (radio-HPLC). It is filed as physicochemical. The settings on record: PBS buffer pH=7.4, 37° C. The procedure:
The purpose of this experiment was to test the stability of the radioligands under buffer conditions simulating the physiological environment. This stability is a prerequisite for further animal experiments.
1. ^68Ga-SDYD01: ^68Ga-SDYD01 was added to PBS buffer (pH=7.4) and incubated at 37° C. The mixture samples were taken for radio-HPLC analysis after 0.5 hours, 1 hour, and 2 hours of incubation. The stability of ^68Ga-SDYD01 in PBS buffer: the radiochemical purities of ^68Ga-SDYD01 after incubation in PBS for 0.5 hours, 1 hour, and 2 hours were 98%, 97%, and 97%, respectively (FIG. 4).
2. ^177Lu-SDYD01: ^177Lu-SDYD01 was added to PBS buffer (pH=7.4) and incubated at 37° C. The mixture samples were taken for radio-HPLC analysis after 24 hours, 48 hours, and 120 hours of incubation. The stability of ^177Lu-SDYD01 in PBS buffer: the radiochemical purities of ^177Lu-SDYD01 after incubation in PBS for 24 hours, 48 hours, and 120 hours were 97%, 96%, and 94%, respectively (FIG. 5).
1. ^68Ga-SDYD02: ^68Ga-SDYD02 was added to PBS buffer (pH=7.4) and incubated at 37° C. The mixture samples were taken for radio-HPLC analysis after 0.5 hours, 1 hour, and 2 hours of incubation. The stability of ^68Ga-SDYD02 in PBS buffer: the radiochemical purities of ^68Ga-SDYD02 after incubation in PBS for 0.5 hours, 1 hour, and 2 hours were 96%, 95% and 93%, respectively (FIG. 10).
2. ^177Lu-SDYD02: ^177Lu-SDYD02 was added to PBS buffer (pH=7.4) and incubated at 37° C. The mixture samples were taken for radio-HPLC analysis after 24 hours, 48 hours, and 120 hours of incubation. The stability of ^177Lu-SDYD02 in PBS buffer: the radiochemical purities of ^177Lu-SDYD02 after incubation in PBS for 24 hours, 48 hours, and 120 hours were 95%, 91% and 87%, respectively (FIG. 11).
1. ^68Ga-SDYD05: ^68Ga-SDYD05 was added to PBS buffer (pH=7.4) and incubated at 37° C. The mixture samples were taken for radio-HPLC analysis after 0.5 hours, 1 hour, and 2 hours of incubation. The stability of ^68Ga-SDYD05 in PBS buffer: the radiochemical purities of ^68Ga-SDYD05 after incubation in PBS for 0.5 hours, 1 hour, and 2 hours were 98%, 96% and 95%, respectively (FIG. 16).
2. ^177Lu-SDYD05: ^177Lu-SDYD05 was added to PBS buffer (pH=7.4) and incubated at 37° C. The mixture samples were taken for radio-HPLC analysis after 24 hours, 48 hours, and 120 hours of incubation. The stability of ^177Lu-SDYD05 in PBS buffer: the radiochemical purities of ^177Lu-SDYD05 after incubation in PBS for 24 hours, 48 hours, and 120 hours were 97%, 96% and 96%, respectively (FIG. 17).
1. ^68Ga-SDYD06: ^68Ga-SDYD06 was added to PBS buffer (pH=7.4) and incubated at 37° C. The mixture samples were taken for radio-HPLC analysis after 0.5, 1, and 2 hours of incubation. The stability of ^68Ga-SDYD06 in PBS buffer: the radiochemical purities of ^68Ga-SDYD06 after incubation in PBS for 0.5 hours, 1 hour, and 2 hours were 96%, 94% and 93%, respectively (FIG. 22).
2. ^177Lu-SDYD06: ^177Lu-SDYD06 was added to PBS buffer (pH=7.4) and incubated at 37° C. The mixture samples were taken for radio-HPLC analysis after 24 hours, 48 hours, and 120 hours of incubation.
1. ^68Ga-SDYD03: ^68Ga-SDYD03 was added to PBS buffer (pH=7.4) and incubated at 37° C. The mixture samples were taken for radio-HPLC analysis after 0.5 hours, 1 hour, and 2 hours of incubation. The stability of ^68Ga-SDYD03 PBS in PBS buffer: the radiochemical purities of ^68Ga-SDYD03 after incubation in PBS for 0.5 hours, 1 hour, and 2 hours were 96%, 96% and 95%, respectively (FIG. 27).
2. ^177Lu-SDYD03: ^177Lu-SDYD03 was added to PBS buffer (pH=7.4) and incubated at 37° C. The mixture samples were taken for radio-HPLC analysis after 24 hours, 48 hours, and 120 hours of incubation. The stability of ^177Lu-SDYD03 in PBS buffer: the radiochemical purities of ^177Lu-SDYD03 after incubation in PBS for 24 hours, 48 hours, and 120 hours are 99%, 96% and 94%, respectively (FIG. 28). […]

Data set [4] is described as follows: Small animal PET imaging and biodistribution study. Format: in vivo, NSG mice. The following applies: NSG, mouse, in vivo, iv, 7.4 MBq, total radioactivity, read-out: absolute uptake value in the tumor. The procedure: (§1) Eleven NSG mice bearing subcutaneous xenograft tumors (U87 MG cells), with tumor sizes approximately 150 mm^3, were used. The mice were intravenously injected via the tail vein with approximately 7.4 MBq of ^68Ga-labeled SDYD01, SDYD02, SDYD03. SDYD04, SDYD05, SDYD06, SDYD07, SDYD08 or SDYD07-1 compounds, or with ^[…]-labeled FAPI-04 or FAP2286 compounds as tracers. Micro PET/CT imaging was performed at 30 min, 60 min, and 120 min post-injection. Static images were acquired in 3D mode for 20 minutes. Reconstruction was performed using the OSEM3D/MAP method to obtain attenuation-corrected PET/CT fusion images.
(§2) NSG mice bearing subcutaneous xenograft tumors (U87 MG cells) were divided into 3 groups, with 11 mice in each group. They were intravenously injected via the tail vein with ^68Ga-labeled SDYD01, SDYD02, SDYD03. SDYD04, SDYD05, SDYD06. SDYD07, SDYD08, or SDYD07-1 compounds, or with ^68Ga-labeled FAPI-04 or FAP2286 compounds as tracers. Tumor-bearing mice injected with ^68Ga-labeled compounds SDYD01, SDYD02, SDYD03, SDYD04, SDYD05, SDYD06, FAPI-04, as well as 68Ga-labeled compounds FAPI-04 and FAP2286, were euthanized at 30 min. 60 min, and 120 min, respectively, for each group. Tumor-bearing mice injected with ^68Ga-labeled compounds SDYD07, SDYD08, and SDYD07-1 were euthanized at 30 min, 60 min, and 90 min, respectively, for each group. Blood, tumors, and other major organs and tissues were collected, weighed, and measured for radioactivity. After radioactive decay correction, the standardized uptake value (SUV) and percentage injected dose per gram of tissue (% ID/g) were calculated. In these figures, (a) represents the PET/CT imaging results, (b) represents the biodistribution results, and (c) represents the relative ratios of radioactive uptake in tumor versus normal tissues.

The subject of data set [5] is subcutaneous xenograft tumors (U87 MG cells). Put plainly: Small animal PET imaging and biodistribution study. It is filed as in vivo, NSG mice. The settings on record: tail vein injection; U87 MG tumor-bearing NSG mice. How it is done: as §1, §2

Read-outs that look alike come from different tables or passages of the source.

`CCCCCC(=O)N[C@@H]1CSCc2cc(CSCCNC(=O)[C@@H](CCCCNC(=O)CN3CCN(CC(=O)O)CCN(CC(=O)O)CCN(CC(=O)O)CC3)NC(=O)COCCOCCNC(=O)COCCOCCNC(=O)CCN3C(=O)CC(SCCNC(=O)CCC(=O)N[C@@H](CCCNC(=N)N)C(=O)N[C@@H](CCCNC(=N)N)C(=O)N[C@@H](Cc4ccc5ccccc5c4)C(=O)N[C@@H]4CSSC[C@@H](C(=O)N[C@@H](CCCNC(=N)N)C(N)=O)NC(=O)[C@H](CCCNC(N)=O)NC(=O)[C@H](CCCNC(=N)N)NC(=O)[C@H](Cc5ccc(O)cc5)NC(=O)[C@@H]5CCCN5C(=O)[C@H](CCCCN)NC(=O)[C@H](CCCCN)NC(=O)[C@H](CCCNC(N)=O)NC(=O)[C@H](Cc5ccc(O)cc5)NC4=O)C3=O)cc(c2)CSC[C@@H](C(=O)O)NC(=O)[C@H](Cc2ccccc2)NC(=O)[C@H](CCC(N)=O)NC(=O)C([C@@H](C)O)NC(=O)[C@@H]2CCCN2C(=O)[C@@H]2CCCN2C1=O` (stereo partly drawn) [SDYD02]: in data set [1], the “Main peak's PI” value was found to be 11.183. Further, the “KD values / binding affinity to the receptors (in words)” value in data set [2] is on record as “relatively low KD values”. Also, the Kd in data set [2] (FAPI-04 solution, read-out: KD value, First single inhibition group (FAP single inhibition)) is 3.35 ± 0.92 nM; in data set [2] (T140 solution (CXCR4 inhibitor), read-out: KD value, Second single inhibition group (CXCR4/GRPR/αvβ3 single inhibition)), 6.3 ± 0.78 nM; in data set [2] (read-out: KD value, Non-inhibition group) it was 7.11 ± 1.17 nM.

As for `CC(C)CC(CC(C)C)NC(=O)[C@H](Cc1cnc[nH]1)NC(=O)CNC(=O)C(NC(=O)[C@H](C)NC(=O)[C@H](Cc1c[nH]c2ccccc12)NC(=O)[C@H](CCC(N)=O)NC(=O)[C@@H](Cc1ccccc1)NC(=O)COCC(=O)Nc1ccc(CNC(=O)COCCOCCNC(=O)COCCOCCNC(=O)[C@H](CCCCNC(=O)CN2CCN(CC(=O)O)CCN(CC(=O)O)CCN(CC(=O)O)CC2)NC(=O)CCC(=O)N2CCN(CCCOc3ccc4nccc(C(=O)NCC(=O)N5CC(F)(F)C[C@H]5C#N)c4c3)CC2)cc1)C(C)C` (single isomer, unassigned) [^68Ga-SDYD03, metal not drawn], in data set [3], the “stability in PBS buffer (in words)” value is “quite stable in PBS buffer”. In addition, the tissue uptake at 0.5 h in data set [4] (30 minutes post-injection) was at least 10 %ID/g. Further, in data set [4] (60 minutes post-injection), the tissue uptake at 1 h was at least 10 %ID/g. Besides, the “radioactive uptake in the tumor sites (in words)” value in data set [5] is reported as “significant radioactive uptake in the tumor sites”.
